Experiment [1] has as its target Human FcRn (neonatal Fc receptor for IgG) (human) (UniProt P55899). As to the kind of experiment: ITC; 15 uM FcRn in the sample cell, titrated with 100 uM mAb from the syringe (9 injections of 3 uL); 25 °C; 1 x PBS, pH 6.0; independent fit model. Background: ITC needs no label: the signal is the heat of the interaction.
A further experiment addresses hGHbp ECD (Homo sapiens) (UniProt P10912). As to the kind of experiment: SPR. The note with it: cited from earlier work.
Chain of UniProt P10912 (P10912 19-256): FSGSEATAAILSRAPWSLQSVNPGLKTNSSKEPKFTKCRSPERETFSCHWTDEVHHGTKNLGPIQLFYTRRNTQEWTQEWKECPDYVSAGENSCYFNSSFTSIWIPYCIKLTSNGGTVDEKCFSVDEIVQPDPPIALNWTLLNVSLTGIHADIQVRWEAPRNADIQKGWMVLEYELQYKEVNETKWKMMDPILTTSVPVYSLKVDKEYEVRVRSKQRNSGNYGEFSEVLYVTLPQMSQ

Chain of UniProt P55899 (P55899 whole entry, looked up, the tested form may be a part): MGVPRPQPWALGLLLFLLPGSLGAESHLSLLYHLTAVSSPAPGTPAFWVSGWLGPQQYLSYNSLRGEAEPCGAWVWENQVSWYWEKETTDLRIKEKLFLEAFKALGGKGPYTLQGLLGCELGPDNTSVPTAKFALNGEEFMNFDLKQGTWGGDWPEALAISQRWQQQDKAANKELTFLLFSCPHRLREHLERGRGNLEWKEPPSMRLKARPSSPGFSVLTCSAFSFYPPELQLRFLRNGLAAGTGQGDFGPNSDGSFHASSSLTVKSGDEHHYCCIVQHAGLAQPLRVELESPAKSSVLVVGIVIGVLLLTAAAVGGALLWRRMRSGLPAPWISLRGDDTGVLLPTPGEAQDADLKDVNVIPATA

For the substance “YTE mutant IgG mAb (IgGA-YTE) (antibody)”, in experiment [1], the dH is -12 kcal/mol.

Usually Kd stands for the constant that tells how readily two partners part at equilibrium. Turning to hGHwt (from UniProt P01241), the Kd in the experiment with hGHbp ECD (Homo sapiens) was 1.2 nM. As for wildtype IgG mAb (IgGAwt) (antibody), in experiment [1], the dH was -5.5 kcal/mol.

The record behind these values is article PMC12384571.
